Key:
[1] = biological target: Grb2 C-terminal SH3 domain (SH3C), residues 155-217 (mouse) (UniProt Q60631); assay: ITC; free Grb2 SH3C in the cell (20 uM for the peptide, 40 uM for Vav) titrated with 280 uM SLP65 peptide or 600 uM Vav SH3N; 20 mM sodium phosphate, 100 mM NaCl, pH 6.0, 25 °C; one-site binding model
[2] = biological target: Grb2 SH3C-SLP65 peptide binary complex (formed before Vav SH3N was added) (mouse) (UniProt Q60631); assay: ITC; Vav SH3N titrated into the preformed Grb2 SH3C-SLP65 peptide binary complex (gives Complex 2, trimeric); 20 mM sodium phosphate, 100 mM NaCl, pH 6.0, 25 °C; Kd called approximate
Grb2 SH3C-SLP65 peptide binary complex (formed before Vav SH3N was added) (mouse), sequence (Q60631 155-217, one chain of several): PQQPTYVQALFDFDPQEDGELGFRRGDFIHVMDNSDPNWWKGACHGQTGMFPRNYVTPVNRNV

Grb2 C-terminal SH3 domain (SH3C), residues 155-217 (mouse), sequence (Q60631 155-217): as the sequence (Q60631 155-217, one chain of several) above

## Vav N-terminal SH3 domain (SH3N), residues 583-660 (from UniProt Q8VDU4 583-660) (domain or fragment)
[1]
  Kd: 4.5 µM
  dH: -3.15 kcal/mol
  stoichiometry N: 0.91
[2]
  Kd: 11.5 µM
  dH: -0.54 kcal/mol
  stoichiometry N: 1.1

From paper PMC5430726
